Experimental data: IntAct's records for PubMed 18075593

Molecular target: cry1_mouse Cry1 (UniProt P97784)
Sequence (P97784 whole entry): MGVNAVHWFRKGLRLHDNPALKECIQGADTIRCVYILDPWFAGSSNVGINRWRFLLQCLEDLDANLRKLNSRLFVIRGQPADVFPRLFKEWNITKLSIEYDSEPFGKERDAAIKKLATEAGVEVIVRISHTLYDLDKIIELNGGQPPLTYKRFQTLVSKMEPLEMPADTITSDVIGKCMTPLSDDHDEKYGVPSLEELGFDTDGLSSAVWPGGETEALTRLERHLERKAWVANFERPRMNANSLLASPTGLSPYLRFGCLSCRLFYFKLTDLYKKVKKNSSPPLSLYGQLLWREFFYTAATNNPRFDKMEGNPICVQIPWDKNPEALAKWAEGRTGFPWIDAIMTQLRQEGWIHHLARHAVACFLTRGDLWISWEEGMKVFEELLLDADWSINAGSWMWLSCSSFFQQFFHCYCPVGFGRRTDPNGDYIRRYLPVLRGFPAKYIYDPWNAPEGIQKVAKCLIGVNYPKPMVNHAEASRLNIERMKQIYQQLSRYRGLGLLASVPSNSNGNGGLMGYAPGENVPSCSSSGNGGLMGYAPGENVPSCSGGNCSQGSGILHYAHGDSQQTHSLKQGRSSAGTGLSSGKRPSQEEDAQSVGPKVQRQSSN

Chain of Basic helix-loop-helix ARNT-like protein 1 (Mus musculus), Q9WTL8-2 K537R (Q9WTL8 other isoform, or with tags, fused parts or gaps K537R): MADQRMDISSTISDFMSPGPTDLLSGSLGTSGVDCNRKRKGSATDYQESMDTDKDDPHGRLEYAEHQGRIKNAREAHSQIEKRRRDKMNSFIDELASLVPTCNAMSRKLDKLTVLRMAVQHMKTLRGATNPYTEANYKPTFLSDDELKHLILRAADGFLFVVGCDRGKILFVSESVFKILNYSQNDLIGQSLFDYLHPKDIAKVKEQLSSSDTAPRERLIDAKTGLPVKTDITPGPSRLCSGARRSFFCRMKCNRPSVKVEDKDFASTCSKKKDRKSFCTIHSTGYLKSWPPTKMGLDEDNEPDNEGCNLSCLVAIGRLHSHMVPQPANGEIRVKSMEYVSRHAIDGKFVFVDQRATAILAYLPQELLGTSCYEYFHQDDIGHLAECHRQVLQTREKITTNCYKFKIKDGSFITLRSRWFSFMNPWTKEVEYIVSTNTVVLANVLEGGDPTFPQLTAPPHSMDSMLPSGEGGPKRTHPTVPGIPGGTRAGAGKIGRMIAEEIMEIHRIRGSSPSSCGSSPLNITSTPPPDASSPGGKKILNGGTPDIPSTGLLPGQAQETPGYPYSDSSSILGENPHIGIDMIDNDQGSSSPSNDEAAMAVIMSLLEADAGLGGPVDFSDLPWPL

effect of a mutation on the interaction: decreasing interaction strength
Substance: Basic helix-loop-helix ARNT-like protein 1 (Mus musculus), Q9WTL8-2 K537R
